Experimental data reported in publication PMC12440814.

Columns and labels:
[1] = target: T1, CtTrl1-LIG WT (Chaetomium thermophilum, UniProt G0S6G2 1-414); assay: X-ray crystallography
T1 sequence: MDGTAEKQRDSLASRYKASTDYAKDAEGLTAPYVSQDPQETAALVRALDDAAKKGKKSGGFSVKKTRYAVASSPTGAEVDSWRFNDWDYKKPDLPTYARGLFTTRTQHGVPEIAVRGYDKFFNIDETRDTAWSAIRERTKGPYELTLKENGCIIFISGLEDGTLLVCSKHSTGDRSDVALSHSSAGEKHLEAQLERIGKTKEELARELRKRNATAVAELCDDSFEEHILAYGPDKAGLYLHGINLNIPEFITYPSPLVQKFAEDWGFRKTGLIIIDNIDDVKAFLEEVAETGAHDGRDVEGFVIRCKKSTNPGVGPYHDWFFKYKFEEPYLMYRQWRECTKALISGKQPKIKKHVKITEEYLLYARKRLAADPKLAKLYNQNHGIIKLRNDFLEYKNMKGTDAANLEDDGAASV

[2] = target: T1, CtTrl1-LIG WT; assay: EMSA
[3] = target: T1, CtTrl1-LIG WT; assay: EMSA; remark: listed apart in the source
[4] = target: T2, CtTrl1-LIG S171A (Chaetomium thermophilum, UniProt G0S6G2 1-414, S171A); assay: EMSA
T2 sequence: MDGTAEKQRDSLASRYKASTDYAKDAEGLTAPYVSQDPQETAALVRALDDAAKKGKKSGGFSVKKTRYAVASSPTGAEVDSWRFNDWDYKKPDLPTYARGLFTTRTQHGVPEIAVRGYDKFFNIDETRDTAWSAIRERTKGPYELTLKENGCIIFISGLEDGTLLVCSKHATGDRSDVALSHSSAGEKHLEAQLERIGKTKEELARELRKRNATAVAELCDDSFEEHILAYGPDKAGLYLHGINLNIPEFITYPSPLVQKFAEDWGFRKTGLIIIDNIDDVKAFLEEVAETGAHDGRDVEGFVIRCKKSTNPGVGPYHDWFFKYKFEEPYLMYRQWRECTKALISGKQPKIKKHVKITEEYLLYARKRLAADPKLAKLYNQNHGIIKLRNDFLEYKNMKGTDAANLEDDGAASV

[5] = target: T3, CtTrl1-LIG H170A (Chaetomium thermophilum, UniProt G0S6G2 1-414, H170A); assay: EMSA
T3 sequence: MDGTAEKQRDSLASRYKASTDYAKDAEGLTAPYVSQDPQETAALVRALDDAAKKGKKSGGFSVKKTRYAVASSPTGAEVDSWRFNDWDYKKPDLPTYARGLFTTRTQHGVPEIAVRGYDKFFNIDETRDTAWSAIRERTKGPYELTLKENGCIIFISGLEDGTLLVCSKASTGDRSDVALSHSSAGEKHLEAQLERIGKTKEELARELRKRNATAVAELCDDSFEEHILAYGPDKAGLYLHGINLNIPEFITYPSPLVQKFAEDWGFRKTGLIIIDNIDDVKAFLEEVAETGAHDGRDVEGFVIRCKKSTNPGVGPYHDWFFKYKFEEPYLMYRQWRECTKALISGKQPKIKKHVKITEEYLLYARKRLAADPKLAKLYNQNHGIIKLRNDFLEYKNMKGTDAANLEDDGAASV

[6] = target: T4, CtTrl1-LIG K148N (Chaetomium thermophilum, UniProt G0S6G2 1-414, K148N); assay: EMSA
T4 sequence: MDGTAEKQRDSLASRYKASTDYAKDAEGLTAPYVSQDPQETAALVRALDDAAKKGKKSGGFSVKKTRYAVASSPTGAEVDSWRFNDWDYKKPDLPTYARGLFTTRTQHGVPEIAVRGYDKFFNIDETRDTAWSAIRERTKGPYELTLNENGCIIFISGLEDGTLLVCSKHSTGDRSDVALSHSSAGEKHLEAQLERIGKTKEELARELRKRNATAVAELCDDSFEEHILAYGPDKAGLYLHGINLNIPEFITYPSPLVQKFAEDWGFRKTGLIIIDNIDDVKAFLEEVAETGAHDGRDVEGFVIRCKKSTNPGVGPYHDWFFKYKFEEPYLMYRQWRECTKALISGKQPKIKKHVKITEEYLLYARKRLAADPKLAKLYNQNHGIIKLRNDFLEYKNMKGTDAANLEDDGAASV

B1: 3'exon-7nt (dsRNA)
RNA 1: AUCUGGA
RNA 2: AUCUGGA
modifications: 5'-phosphate; one strand end 5'-adenylylated (AppRNA) in the crystal
binding result [1]: binds

CUCUGGAUUUUGCCAGACUGAAG (structured_RNA, 5'-phosphate and terminal phosphate presumed as in ASL-4U) [ASL-4U-5C]
binding result [2]: binds

AUCUGGAUUUUGCCAGACUGAAG (structured_RNA, 5'-phosphate; terminal phosphate at 3' end nucleotide (2'-P/3'-OH)) [ASL-4U]
binding result [3]: binds
binding result [4]: binds
binding result [5]: binds
binding result [6]: binds
